# Assay: soluble on expression in E. coli; label from the status in PepcDB or PDB records
row,Sequence,soluble on expression in E. coli
1,MPTPTTLSEWQLLAVLSKANLVQYYDVFIAQGGDDINQIMACEEREFLEIMNLVGMLPKPLHVRRMQRALAEYSQDQTAFNLAALQQIGPPPPLNYTPAGTDPMALLLPGIAAATSPKFPSLRFLSQLSSVAEKVSTPSEAADTSSSSPSLNLNTTSSNSVPLAFKFSTPLLESLASDQQSSSTSSVRSVLPSTSSNTSHPELPAGILPATTTNVSAAVPPPSSRATANVFSGNSIGLNFSGAASVTRHLVVPPSSTSIQQPSTSFGRSSSITGQEKEGSSSPFLGVGYSQPYGNDFVSLGDFDPNNPSLTENPTLSTAQISRLAECALAASKNLPPLPPRLVQNKKRVSKEVIELLKCSPATPSMIHAFRKYSAIYGRFDTKRKPHKVLTLHETTVNEAAAQLCLLVPSLLTRRDELFPLARQIVKDAGYNYAKSRKRPCDPADLHSPISSPGNSPPPQESEFDEQPSSSSGAFKEEERPPIPPEAWAAIIEKMKGELPES,not soluble
2,DPDTRIPVINLEDGTRLVGEDAPKNKDLVEWLKLHPTYTVDMPSYVPKNADVLFSSFQKPKQKRHRCRNPNKLDINTLTGEERVPVVNKRNGKKMGGAMAPPMKDLPRWLEENPEFAVAPDWTD,soluble
3,MAGFEIQRVESKFFDLDDIIAKSDSTSCTFEIGDLNPDFFQEMLGVSKPTQNADGYGVDAPYWLLESVRSSFSIQLPKAYSVNMQNVLNADSKKLNLSGLQQHFYGNGMQLCRLMKGENPDGALSLARCLVSTLTQRLGEIVSTATHLQSKGEKFDSLETKVFLEGKRCKEDIDTWLRQDNKCSSKKRKRLSL,not soluble
4,MESPNMRKRLIEMESSLEVKKTATTVKQEPLETSSPLLASMISTAPNPPPTSPHALNYLTLLAAFRQFLHGYIQAGGDENLANTLGNYVAALPMPPNSLNPIGPLNAPKSPFKQQQKFHSIIKAVKREPVSEPAQNAGSGDSSVTLSSALGEDAVPQNRGSCTSMKPVPRFVMLPVVAAQSASPSASGPTSEIQQLREAAFGRYKNVLCVICNEWICSRNRKNHIEAHLNYRPYKCSACSYARRREIFVDQHIRTQHKGVEGVVMLSDVDLHVAMEVDRLAEECVTRTRKIIDTMQEKKDGDFGENKDFDEKALQMMLAEEAENKVVVIESVSQVRPKVANYHRRQRTKVLKKIYDTDVAKQTELKIVKDEEGGVPTMSIKLEEGFEINLEDLMKMVGAGSSITDSNEPGPSEIKKELAEV,not soluble
5,MTKQQKGFVTGQPTGALNLSDILDSEELGEYHLMSAAIITGNTVDFSGLGAGPDDPFEIASITKIFTGELLRLQIERGEITESTAVGDVLGERVADSLIRDITVEELANHTSGLPRLGNVGLRPFMATFFDKNPYKDLSADRVISISTTSKLNSRGEFHYSNLGFALLGQVLARNAGLTFDQLLDRDLLAPLNLNNTKLMTPESLAQDAPQGFSTPGKQVEAWEMDGFLPAAGLRSTARDMAVFCQYLFTKGPAPFTWQSLESAPEIVWHNGESFGYSSVLFFNTATTTAIFVAADVATSVFPIGHELLMANSTRQESKLEHHHHHH,not soluble
6,MGLFDRLKRVVGANVNDLINKAEDPEKMLEQAILEMQEDLVQLRQGVAQAIAAQKRTEKQYNDAQNEINKWDRNARLALQKGDENLARQALERKKSFTDTSTSLKTSLDQQTIQVDTLKKNLIQLESKISEAKTKKEMLKARITAAKAQEQLGSMVVSMNSSSAMAAFERMEEKVLMQEARAQSTAELVGADLETQFAQLESGSDVDDELAALKASMLPPAPAPQGQLPPSQATTAKPTEPIDSDLEALKRQLDQM,not soluble
7,MKKSLDEHAERFSDHADAYDEDQDSAAYRACVNFVVDHAAPESDDVVLDLGTGTGAIAFALASDAAEIIGRDISDGMLEKAREKADGRGVENVSFGDGRFRAPNVDRPVDIVTSNFAMHHLGDDEKREAIDTIADLGPRRIVLGDVMLFGDDDPDAPFYSPEVDDPATVGVLADAFTDAGYALTAVEMVTEQAGVLVAERVKSDLEHHHHHH,soluble
8,MSLSPDSAHQQVSLRGGSGSEFMIVDITDGRLLGTIDSAKAMSQTHPGAVYLHQGESFVIDELDLEENLALARPELPDYTTYARSDTDIRITSAPLEDEVFDAGGGLWVANVEVQVTDRVTGYVTRLSDGTTLDATPLYLPPQILQTRAVAYTIDPLALEAMGIPAADIPGALHAAEHAAIGMLPLLATCDRWDIGGVSTALHADTGYPTVFVYDGMDGGAGFADTGFRRFAQWIEATFEVVRSCSCESGCPSCVQSPKCGNGNNPLDKAGAIKLLGAMVTLLGTSEGHHHHHH,not soluble
9,MRKGGKGYFLTIRRDYVTVSYYLKYVKDIPLEFREIIDIFNNHKFEQYTQEQINKYTYTCNVRKIEDIDKYDEKNPTKFHEYTRGEACRCQTYNYFKDDEFIKRAKLKCIYYNMLFTESATVYSRHCPIIDLMHFAVYDIEYPPIFNTIVNITIEEYYYNDVSSVLNNKSDLVTKEKKYQLNDTITEIRDDYFDLWLFLKGETHGKRTLVNLSNDYIVIPSSPINNRDVIASDITRNCGLSQNSPLLKGCNYSSICNIMHPCLRKAMMLPKYMFDLSGKTCGKLGVSLNT,not soluble
10,MSLNILVIGTGAIGSFYGALLAKTGHCVSVVARSDYETVKAKGIRIRSATLGDYTFRPAAVVRSAAELETKPDCTLLCIKVVEGADRVGLLRDAVAPDTGIVLISNGIDIEPEVAAAFPDNEVISGLAFIGVTRTAPGEIWHQAYGRLMLGNYPGGVSERVKTLAAAFEEAGIDGIATENITTARWQKCVWNAAFNPLSVLSGGLDTLDILSTQEGFVRAIMQEIRAVAAANGHPLPEDIVEKNVASTYKMPPYKTSMLVDFEAGQPMETEVILGNAVRAGRRTRVAIPHLESVYALMKLLELRTSKSLWGNEGHHHHHH,soluble
11,MLTFLFELDKNLPQKDEPRYDAYSKGFIEGDVTICASDSVFFQKSCMKVAELGIYLGQWMEQVQHGQNVPMKYETADREEVILGFFYEEDHNQWIVFSSWQEFELQERIATATLIESVQRYLYELNKELRMIEYPVTFDQYLRGERMMQLSYKRPCDSKADTTPIEVYNGSEQVGVVRGYYKNTLMRALDFIPKIGSNIIYEIKDSKDNIRVIAKDVSRQRQRRILVMYKDNHDAEHEILVCDGKLLDANFLFTFTYKAEEYVVHKTLFGMGKLLRKGYVIADWNIRLEEDMYYIEMNVYDEDYMQDQYLLLGVFHAVLYG,not soluble
12,MDNRIPSALTTSVKSPKTPSGIPFLIRERDVIKAILEFLEIRGLHITQLSLEREAGVINGAFSDDLLFLRQLILDGQWDNALDFVEPLKPVNEFDFGAFRYNITKYKFFELLCVKLEPGPLHDNDFAVEELVECLKDLEHICPTPEDYRHLCALLTLPKLSDHEDFKNWNPSSARVECFNKVNQLCGHLLPPTGKEKDRGDDANSSNDRLTGLITKGRFYEGCVDYCQAQAIGDKRGIDAGPMPSEMLTFRPKLGSADLSLVCWLEMVGKEQFSMPFKQKQLELKVDHIRKPKLEAPWTETIMATPIKPGGQFPHNLVPSSKLKFAEKMSQSMTMSMLPPADLTTSMFPSVPRGHPMSQSTAAGFCLGTAITEADAMAQSLLIDEMMESSQLARTSRPDTLRGVGMMMTGDTIVPVQPAQVMINAPSQLSSQMMSMSMAPQVMAPIAPMAQNMINYDFAPVRRQLDEMARRSLPPSRLPTVPELGSPAVNSHHEENLMTQSRLFQQFSAAKQINEMVLPRGVGGVVGAAGAVGGAHVLPLQSQERLFQQRVAAAPGFQNGAQIPNQSMVPQGVPMSHQIRPQSIAGLPQAQPQVPQQLQRPVSAPTGMGVQFVPVCRYEDSQAIRATGFHPSGRYFALGTNSKQLHICLYPDTKRTQSRPMAYEQTKNAEIAVTRPKQHRGSVYCLSFNPNGDLLATGSNDKTIRLMAFNEDSCRIGAEMELTCHDGTVRDLIFIESSINRSTILVSGGAGNCHLNVTDCNTGQLIQSMKGHTAPILGLYTWSQAGNQFVSCSQDKTIRFWDLRQQTAVNVISPGSNKSHNASPVTSVCVDPNGKLLVSGHEDASVALFDIGGNRILQTFRPHGDEVRTVRFSNAAYYLLTASYDKRVVISDMRGDLMAPLMYLPVAEHSDKVVQCRWHPHDFSFLSTSADRSAVLWSLPNR,not soluble
13,MGSDKIHHHHHHMEYVIEMNNITKVFPGIVANDDITLQVKQGEIHALLGENGAGKSTLMNVLFGLYQPEQGEIKIKGKPVKITNPNIANDLGIGMVHQHFMLVHNFTVTENIILGNEPKKNGKIAVEEAAKEIKQLSEQYGLAVDPHAKIEDISVGMQQRVEILKTLYRGAEILIFDEPTAVLTPQEIHELIQIMKKLVQEGKSIILITHKLKEIMEVCDRCTIIRKGKGIGTVDVAETDEHKLAELMVGRQVNFKTEKIEAKPMEEVLSIANLIVHDTRKLPAVKGLDLTVRAGEIVGIAGIDGNGQSELIEAITGLRKVESGSIAIKGKEITNWPVRRITEEGIGHIPEDRHKHGLVLDFSVRDNIVLQTYYKNPFSKKGILNFSKITEKAKALIEQFDVRTPSEQTLARALSGGNQQKAIIAREVDRNPDLLIAAQPTRGLDVGAIEFIHKKLIEQRDNGKAVLLLSLELDEILNVSDRVAVIYEGKIVAIVDAKETNEQQLGLLMAGGTGKEKVNTNG,not soluble
14,MGGGHFAASNALKTAFLQKDPQAKVEIVDTLKIISPILDKLAVGTYLKAIKTVPFIYGLVYDSTDKDPPTRFSKAIYEKFYFAFYKLYNIISELNPDVIIGTHPSPIDMVSQLKKRGNINVPIISIVTDFTIHPYWINEYADYIIVHHENLVYEAVKKGAPGKKVIPLGIPLEHHHHHH,not soluble
15,MAHHHHHHMKDIINSDFEDNKDERVIIVDENNEFQELKARKIMRMENLWHRSTSIFVFTKIGEEYFIYVHKRSKVKDYCPSYYSIGFGGVVSENEDMLGNAVKELEEESGIKKSPEQLFDLGVVKCDTECSRSFVGSYVSLTLGKPMPFDGVRPLRIFACSSGNFTLLLIPHAAFFRAVTPSPTGCLHRPRLPDHPPAE,soluble
16,MLGIHRYDENLPPDELARDYLERTLFVMERVKFHTLAHLDYPARYAKADFKANRDLIEKILVFLVKNEKALEINTAGLFKHGKPNPDYWIVEMYYDLGGRVVTIGSDAHESQHIGRG,soluble
17,GPGSMRLALVGKRTHSLRDNGTPRMHAGDVFICISGSGCIGSIMCTYAQAKKASTGIVMIAGGVGDVPPKDSACATTTLLRSRDGLPWHLHGGGALGPVDGQPVRVRLVFAALFGRDALGGDAAGA,soluble
18,MKTFSDRWRQLDWDDIRLRINGKTAADVERALNASQLTRDDMMALLSPAASGYLEQLAQRAQRLTRQRFGNTVSFYVPLYLSNLCANDCTYCGFSMSNRIKRKTLDEADIARESAAIREMGFEHLLLVTGEHQAKVGMDYFRRHLPALREQFSSLQMEVQPLAETEYAELKQLGLDGVMVYQETYHEATYARHHLKGKKQDFFWRLETPDRLGRAGIDKIGLGALIGLSDNWRVDSYMVAEHLLWLQQHYWQSRYSVSFPRLRPCTGGIEPASIMDERQLVQTICAFRLLAPEIELSLSTRESPWFRDRVIPLAINNVSAFSKTQPGGYADNHPELEQFSPHDDRRPEAVAAALTAQGLQPVWKDWDSYLGRASQRL,not soluble
19,MQIDDALLQRLEKLSMLEIKDEHKESVKGHLAEVLGFVENIFALETSALKTDIELCTPLREDEPKSQPNTAKEILSQNKHSQDHYFVVPKIIE,not soluble
